Values quoted from earlier work as cited in patent US20200129630A1, “METHODS FOR TREATING CANCER” (BicycleRD Limited, priority 2018, published 2020).
Read-outs that look alike come from different tables or passages of the source.

Key:
[1] = animals, 58 to 228 mg/m^2 (0.85 and […]^2 DM1) weekly
[2] = not given; remark: listed apart in the source

B1: Cantuzumab mertansine: Anti-CanAg ADC with DM1, SPP cleavable linker (conjugate, chains of the INN, looked up)
VH: QVQLVQSGAEVKKPGETVKISCKASDYTFTYYGMNWVKQAPGQGLKWMGWIDTTTGEPTYAQKFQGRIAFSLETSASTAYLQIKSLKSEDTATYFCARRGPYNWYFDVWGQGTTVTVSS
VL: DIVMTQSPLSVPVTPGEPVSISCRSSKSLLHSNGNTYLYWFLQRPGQSPQLLIYRMSNLVSGVPDRFSGSGSGTAFTLRISRVEAEDVGVYYCLQHLEYPFTFGPGTKLELK
modifications: mertansine (DM1) via SPP linker
axonal degeneration [1]: mild axonal degeneration
DLT (Grade 3) (IV three-times a week): transaminitis. Hepatic, hematological, and neurosensory
MTD (IV three-times a week): three-times a week [37], The MTD was 45 mg/m^2
RP2D (every 3 weeks): from this trial was 235 mg/m^2 every 3 weeks (~3.9 mg/m^2
t1/2 (in vivo): 40 h
MTD (weekly administration): 115 mg/m^2/week (~1.9 mg/m^2/week DM1) with DLTs

B2: Lorvotuzumab mertansine: anti-CD56 ADC with DM1, SPP cleavable linker (conjugate, chains of the INN, looked up)
VH: QVQLVESGGGVVQPGRSLRLSCAASGFTFSSFGMHWVRQAPGKGLEWVAYISSGSFTIYYADSVKGRFTISRDNSKNTLYLQMNSLRAEDTAVYYCARMRKGYAMDYWGQGTLVTVSS
VL: DVVMTQSPLSLPVTLGQPASISCRSSQIIIHSDGNTYLEWFQQRPGQSPRRLIYKVSNRFSGVPDRFSGSGSGTDFTLKISRVEAEDVGVYYCFQGSHVPHTFGQGTKVEIK
modifications: mertansine (DM1) via SPP linker
Recommended Phase 2 dose (RP2D) ([2]; 3 consecutive days every 3 weeks): Recommended Phase 2 dose (RP2D) was 60 mg/m^2
neurosensory AEs (all grades) ([2]; all patients): 17%
Grade 3 or 4 TEAEs hyponatremia and dyspnea (each) ([2]; in vivo): (each 8.2%)[38]. Lorvotuzumab mertansine is currently
t½ ([2]; in vivo): approximately 40 hours
